“And” between values parts separate entries of the source, which are not always exact repeats. Identical values can stand only once.

The target of experiment [1] is T1, peanut allergen Ara h 1 (peanut (Arachis hypogaea)) (UniProt P43238).
T1 sequence (looked up): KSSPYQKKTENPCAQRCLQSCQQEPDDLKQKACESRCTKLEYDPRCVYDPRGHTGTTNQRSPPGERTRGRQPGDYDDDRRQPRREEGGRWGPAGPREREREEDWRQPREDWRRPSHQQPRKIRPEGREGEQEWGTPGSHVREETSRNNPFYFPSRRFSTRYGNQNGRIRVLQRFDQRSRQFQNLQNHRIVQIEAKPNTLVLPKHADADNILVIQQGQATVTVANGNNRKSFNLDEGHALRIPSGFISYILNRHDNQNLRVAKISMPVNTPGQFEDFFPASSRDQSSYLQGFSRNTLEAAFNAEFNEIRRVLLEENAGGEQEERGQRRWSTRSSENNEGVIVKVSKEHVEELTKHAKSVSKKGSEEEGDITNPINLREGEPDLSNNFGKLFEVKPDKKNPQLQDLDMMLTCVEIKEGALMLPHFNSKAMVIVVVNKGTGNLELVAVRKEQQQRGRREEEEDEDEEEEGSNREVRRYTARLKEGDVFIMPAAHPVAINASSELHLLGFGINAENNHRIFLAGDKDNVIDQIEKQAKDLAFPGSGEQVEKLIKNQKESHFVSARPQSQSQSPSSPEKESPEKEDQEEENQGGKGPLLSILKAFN
In words: ImmunoCAP, hybridoma supernatant.

The target of experiment [2] is peanut extract (peanut ImmunoCAP F13). Put plainly: ImmunoCAP, hybridoma supernatant.
In experiment [3] the target is T2, peanut allergen Ara h 2 (peanut (Arachis hypogaea)) (UniProt Q6PSU2).
T2 sequence (looked up): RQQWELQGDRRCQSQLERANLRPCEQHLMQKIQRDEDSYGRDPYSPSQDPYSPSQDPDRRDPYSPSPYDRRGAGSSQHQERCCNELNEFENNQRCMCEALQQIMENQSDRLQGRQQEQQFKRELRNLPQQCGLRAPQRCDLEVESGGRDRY
In words: ImmunoCAP, hybridoma supernatant.

Experiment [4] concerns the target T3, peanut allergen Ara h 6 (peanut (Arachis hypogaea)) (UniProt Q647G9).
T3 sequence (looked up): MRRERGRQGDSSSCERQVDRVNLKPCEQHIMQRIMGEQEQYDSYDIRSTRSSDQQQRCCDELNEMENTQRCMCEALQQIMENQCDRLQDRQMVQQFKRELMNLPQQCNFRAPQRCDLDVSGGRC
In words: Ara h 6 ImmunoCAP serum blocking; competitor: serum IgE of peanut allergic subjects.

The target in experiment [5] is peanut extract (peanut ImmunoCAP F13). In words: peanut ImmunoCAP serum blocking; competitor: serum IgE of peanut allergic subjects.

B1: human IgE mAb 38B7 (antibody, V domains shown)
VH: QVQLVESGGGVVQPGRSLRLSCVGSGFTFRRDAKYWVRQAPGKGLEWVAAISHDGGEEDYAESVKGRFTISRDNSRETVYLEMNSLRPEDTAVYYCATTRSGWYFDYWGQGALVTVSS
VL: EIVLTQSPATLSLSPGARATLSCRASQSVDTYLAWYQQRRGQSPRLLIYDASKRATGIPARFSGSGSGTDFTLTISSLEPEDFAVYYCQQRNNWRTWTFGQGTKVEIN
With B1, the ImmunoCAP kUA/L in experiment [1] is 0.11 kUA/L; in experiment [2] it was 286 kUA/L; in experiment [3] it was 203 kUA/L.

B2: human IgE mAb 21C10 (antibody, V domains shown)
VH: EVQLVESGGGLVKPGGSLRLSCAASGFILSRSSMSWVRQAPGKGLEWVSYISSTSSHIYYADSLKGRFTISRDNTENSVYLQMSSLRAEDTGVYYCARKTNGAWFLDLWGRGTLVTVSS
VL: QSVLTQPPSVSGAPGQRVTISCTGSSSNIGAGSDVHWYQQFPGSAPHVLIYGNNQRPSGVPDRFSASKSGTSASLAITGLQADDEADYYCQSYDYDLSGSWVFGGGTKLTVL
For the molecule B2, the results for the ImmunoCAP kUA/L in experiment [1], in experiment [2] and in experiment [3] were 0.36 kUA/L, 715 kUA/L and 0.46 kUA/L, respectively.

B3: human IgE mAb 2C9 (antibody, V domains shown)
VH: QVQLVESGGGLVKPGGSLRLSCAASGFSFSDFYMSWIRQAPGKGLECISYMSSSGGNIYYADSVKGRFTISRDNAKNSLSLQMNSLRADDTALYYCARRRYGSGSSIFDYWSQGTLVTVSS
VL: SYELTQPPSVSVSPGQTASVTCSGDTLGDRYVSWYQQKAGQSPVLVIYQSGQRPSGIPERFSGSNSGNTATLSISETQALDEADYYCLTWDRGTPVFGPGTTVTVV
For the molecule B3, the ImmunoCAP kUA/L is 21.4 kUA/L in experiment [2] and 0.13 kUA/L in experiment [3].

B4: human IgE mAb 7B6 (antibody, V domains shown)
VH: QVQLQQWGAGLLKPSETLSLTCAVYGGSFNGYYWSWIRQPPGKGLEWIGEIDHSGSTNYNSSLKSRVTISVDTSKNQFSLKLSSVTAADTAVYYCARRRIGSLLKYFQDWGQGTLVTVSS
VL: SYELTQPPSVSVSPGQTASITCSGDKLGDSYVCWYQLKPGQSPVLVIYQDTKRPSGIPERFSGSNSGNTATLTISETQAMDEADYYCQAWDTTTDWVFGGGTKLTVL
As to B4, the ImmunoCAP kUA/L in experiment [1] came to 0.19 kUA/L; in experiment [2], 420 kUA/L; in experiment [3] it was 0.41 kUA/L.

B5: human IgE mAb 15A7 (antibody, V domains shown)
VH: QVQLVQSGPEVRKPGASVKVSCKTSGYMFTDYEMNWVRQAPGQGLEWMGLINPHSGDTGYAQKFQGRVSMTSDTSTRTFYLELTGLTSEDTAVYYCARSQGTFEVYYFVSWGQGSLVTVSS
VL: SYVLTQPPSVSVAPGKTASITCGAKNIATKRVHWYRQKPGQAPVVVVSDEEDRSSVIPERFSGSKSGDTATLEISRVEAGDEADYYCQVWDSLADQVVFGGGTKVTVL
In the case of B5, the ImmunoCAP kUA/L in experiment [2] came to 14 kUA/L; in experiment [3] it was 25.8 kUA/L.

B6: human IgE mAb 3C3 (antibody, V domains shown)
VH: QLQLQESGPGLVKPSETLSLTCSISGASINSDDYYWGWIRQAPGEALEWIASIDASGTTFYNPSLRSRVTISVDTSTNQISLRLNSVTAADTAIYYCARRKTYYDFLTDYYNWYFDVWGRGTLVTVSS
VL: QSALTQPRSVSGSPGQSVTFSCTGINSDIRDYDYVSWYQQHPGEAPKLIIYDVTKRASGVPSRFSGSKSGNTASLTISGLQAEDEADYYCCSYSVTYSFEVFGTGTQVSVL
With B6, the ImmunoCAP kUA/L in experiment [1] came to 0.6 kUA/L; in experiment [2] it was 3140 kUA/L; in experiment [3], 0.85 kUA/L.

B7: Ara h 6-specific blocking IgG mAb 1H9 (antibody, V domains shown)
VH: QVQLVQSGSELRKPGASVKVSCKASGYTFTKYGMNWVRQAPGQGLEWMGWINTNTAKPTYAQDFTGRFVFSLDTSVNTAYLEISGLKAEDTAVYYCATDGSEGSWGQGTLVTVSS
VL: DIQMTQSPSTLSASVGDRVTITCRASQSIGTWLAWHQQKPGTAPKVLIYKASNLKSGVPSRFSGSGSGTDFTLTISSLQPDDVATYYCQQYNTYSGTFGQGTRVEIK
As to B7, the percent of serum Ara h 6-specific IgE blocked in experiment [4] is 50%. In experiment [5], the percent of total peanut binding serum IgE blocked is 20% and 25%.

B8: human IgE mAb 26A5 (antibody, V domains shown)
VH: B7 VH
VL: B7 VL
For the molecule B8, the ImmunoCAP kUA/L in experiment [1] worked out at 0.15 kUA/L; in experiment [2] it was 783 kUA/L; in experiment [3] it was 0.46 kUA/L.

B9: Ara h 6-specific blocking IgG mAb 8F3 (antibody, V domains shown)
VH: QLQLQESGPGLVKPSETLSLTCTVSDASIDTPSYFWSWIRQPPGKGLEWIGSIYYTGNKYSNPSLKSRVTMSVDTPKRQFSLRLSSVTAADTAVYYCARYVDYVWLRAFDIWGQGTRVTVSS
VL: EIVLTQSPATLSLSPGERATLSCRASPSAGRFLAWYQQRPGQAPRLLIYDASKRATDTPARFSGSGSGTDFNLTIASLEPEDFAVYYCQHRSNWPLTFGGGTKVEIK
B9: the percent of serum Ara h 6-specific IgE blocked in experiment [4] amounted to 50%. In addition, the percent of total peanut binding serum IgE blocked in experiment [5] was 20% and 25%.

B10: human IgE mAb 3B7 (antibody, V domains shown)
VH: QVQLVQSGSELKKPGASMKVSCKASGYTFTNYAMNWVRQAPGQGLEWMGWINTNTGKPTYAQGFTGRFVFSLDTSVSMAYLQISSLEAGDTAVYFCARGESLAALGSFAYWGQGTLVTVSS
VL: DIQMTQSPSSLSASVGDRVTITCRASQSINSYLAWYQQKPGKAPNLLIYAASNLQSGVPSRFSGSGSGTDFTLTISSLQPEDFATYYCQQSSSTFWTFGQGTKVEIK
With B10, the ImmunoCAP kUA/L in experiment [1] worked out at 0.3 kUA/L; in experiment [2], 1500 kUA/L; in experiment [3], 0.63 kUA/L.

The values are drawn from patent US20240254209A1.
